The values below come from patent publication US20220387557A1 (OXFORD UNIVERSITY INNOVATION, published 2022).

Assay [1] concerns the target T1, Fc tagged human TNFR2 (Sino Biological) (human, UniProt P20333 23-257).
T1 construct: Bought reagent; also called hTNFR2; hTNFR2-Fc; not shown: Fc tag of the bought protein
T1 sequence (looked up): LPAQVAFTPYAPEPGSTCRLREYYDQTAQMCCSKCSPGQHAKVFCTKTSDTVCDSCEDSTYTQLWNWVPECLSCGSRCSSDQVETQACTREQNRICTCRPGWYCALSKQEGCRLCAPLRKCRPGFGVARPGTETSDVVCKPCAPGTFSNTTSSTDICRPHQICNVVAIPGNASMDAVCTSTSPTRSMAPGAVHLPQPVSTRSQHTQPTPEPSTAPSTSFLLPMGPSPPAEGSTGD
Put plainly: SPR (Biacore T200) single cycle kinetics, Fc-tagged receptor captured on Protein A chip, TNF protein as analyte at 1.67-15 nM. As for the experimental part:
(§1) Single cycle kinetic analysis was performed using a Biacore T200 (serial no. 1909913) running Biacore T200 Evaluation Software V2.0.1 (Uppsala, Sweden). All experiments were run at 25° C. with HBS-P+ running buffer (pH 7.4) (GE Healthcare, Little Chalfont, UK).
(§2) Due to the limit in the number of available flow cells for analysis (three Fc per analysis, Fc2, Fc3 and Fc4, with Fc1 always being used as blank reference for non-specific subtraction), receptor binding was assessed in two separate overlapping runs using either: hTNFR1 (Fc2), hTNFR2 (Fc3) and mTNFR1 (Fc4), or; hTNFR1 (Fc2), […] and mTNFR2 (Fc4). Receptors were diluted in running buffer to a concentration of ˜4 μg/mL and at the start of each cycle loaded onto Fc2, Fc3 and Fc4 of a Protein A chip (GE Healthcare, Little Chalfont, UK) at a flow rate of 10 μL/min to give an RU of 40-100. The surface was then allowed to stabilise. Single cycle kinetic data was obtained at a flow rate of 45 μL/min. […] The association phase for the three injections of increasing concentrations of TNF was monitored for 240 seconds and a single dissociation phase was measured for 2700 seconds following the last injection of TNF. Regeneration of the Protein A surface was conducted using 10 mM glycine-HCl pH 1.5. The signal from the reference channel Fc1 (no receptor) was subtracted from that of Fc2, Fc3 and Fc4 to correct for differences in non-specific binding to a reference surface.
(§3) Controls were used to ensure the integrity of the receptors during the Biacore run.

Assay [2] deals with T2, Fc tagged mouse TNFR2 (Sino Biological) (mouse, UniProt P25119 23-258).
T2 construct: Bought reagent; also called mTNFR2; mTNF2; not shown: Fc tag of the bought protein
T2 sequence (looked up): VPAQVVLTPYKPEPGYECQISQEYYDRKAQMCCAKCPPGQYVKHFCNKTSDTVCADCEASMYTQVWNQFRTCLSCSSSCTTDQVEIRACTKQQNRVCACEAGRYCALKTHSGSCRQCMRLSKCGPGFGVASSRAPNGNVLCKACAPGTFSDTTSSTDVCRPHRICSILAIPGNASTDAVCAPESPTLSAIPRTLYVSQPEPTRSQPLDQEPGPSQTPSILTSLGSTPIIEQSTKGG
Described as above. As for the experimental part: as §1, §2, §3

Assay [3] has as its target T3, Fc tagged human TNFR1 (Sino Biological) (human, UniProt P19438 22-211, limits assumed).
T3 construct: Bought reagent; also called hTNFR1; hTNFR1-Fc; not shown: Fc tag of the bought protein
T3 sequence (looked up): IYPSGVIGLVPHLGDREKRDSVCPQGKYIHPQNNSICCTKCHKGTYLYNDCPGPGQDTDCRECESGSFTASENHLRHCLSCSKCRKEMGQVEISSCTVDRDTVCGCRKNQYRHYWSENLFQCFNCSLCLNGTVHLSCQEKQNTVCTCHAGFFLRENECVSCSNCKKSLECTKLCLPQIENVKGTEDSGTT
Put plainly: SPR, Biacore T200 multi cycle kinetics, receptor-Fc captured on Protein A chip, TNF 1.25-40 nM, 1:1 model. As for the experimental part: (§4) Multi cycle kinetics analysis of binding to hTNFR1, hTNFR2, mTNFR1 and mTNFR2 was performed on the 10 lead variants using a Biacore T200 (serial no. 1909913) instrument running Biacore T200 Evaluation Software V3.0.1 (Uppsala, Sweden) to characterise further the binding to these receptors.
(§5) As with the single cycle kinetics, receptor binding was assessed in two separate experiments. In the first set of experiments binding to hTNFR1 (Fc2), hTNFR2 (Fc3) and mTNFR1 (Fc4) was assessed. In the second set of experiments the extent of mTNF2 (Fc4) binding was assessed using hTNFR1 (Fc2) and hTNFR2 (Fc3) as controls. All receptors were diluted in running buffer to a concentration of ˜4 μg/mL and at the start of each cycle loaded onto Fc2, Fc3 and Fc4 of a Protein A CM5 chip and captured at a flow rate of 10 μL/min to give an RU of ˜40-100. The surface was then allowed to stabilise. All kinetic data was obtained using a flow rate of 75 μl/min to minimise any potential mass transfer effects. […] The association phase of TNF was monitored for 280 seconds and the dissociation phase was measured for 2100 seconds. […] Regeneration of the Protein A surface was conducted using two injections of 10 mM glycine-HCL pH 1.5 at the end of each cycle. The signal from the reference channel Fc1 was subtracted from that of Fc2, Fc3 and Fc4 to correct for differences in non-specific binding to a reference surface, and a global Rmax parameter was used in the 1-to-1 binding model.

Assay [4] deals with T4, Fc tagged mouse TNFR1 (Sino Biological) (mouse, UniProt P25118 22-212, limits assumed).
T4 construct: Bought reagent; also called mTNFR1; mTNFR1-Fc; not shown: Fc tag of the bought protein
T4 sequence (looked up): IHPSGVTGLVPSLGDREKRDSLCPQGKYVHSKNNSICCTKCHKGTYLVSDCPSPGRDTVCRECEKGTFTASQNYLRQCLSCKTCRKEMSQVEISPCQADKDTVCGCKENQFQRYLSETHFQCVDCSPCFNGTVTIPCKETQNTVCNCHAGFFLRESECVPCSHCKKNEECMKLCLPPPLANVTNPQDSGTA
The assay is described as above. As for the experimental part:
as §4, §5

In assay [5] the target is T3, Fc tagged human TNFR1 (Sino Biological). Put plainly: SPR, Biacore T200 single cycle kinetics, receptor-Fc captured on Protein A chip, TNF 1.67-15 nM. As for the experimental part: as §1, §2
Assay [6] concerns the target T4, Fc tagged mouse TNFR1 (Sino Biological). The description is as above. As for the experimental part:
as §1, §2

Assay [7] concerns the target T3, Fc tagged human TNFR1 (Sino Biological). Put plainly: SPR, Biacore single cycle kinetics, stability study, before freezing (t=0). As for the experimental part:
as §2
(§6) At day zero (prior to freezing) and following thawing on ice after 3 months and 1 year the following assays were performed: [0341] SDS-PAGE [0342] OD280 nm [0343] Single cycle Biacore for binding to hTNFR1, hTNFR2 and mTNFR1

Assay [8] deals with T4, Fc tagged mouse TNFR1 (Sino Biological). The assay is described as above. As for the experimental part: as §2, §6
The target of assay [9] is T3, Fc tagged human TNFR1 (Sino Biological). Put plainly: SPR, Biacore single cycle kinetics, stability study, after 1 year at -20° C. As for the experimental part:
as §2, §6

The target of assay [10] is T4, Fc tagged mouse TNFR1 (Sino Biological). The assay is described as above. As for the experimental part: as §2, §6
Assay [11] deals with T3, Fc tagged human TNFR1 (Sino Biological). Put plainly: SPR, Biacore single cycle kinetics, stability study, after 1 year at -80° C. As for the experimental part:
as §2, §6

For assay [12], the target named is T4, Fc tagged mouse TNFR1 (Sino Biological). The assay is described as above. As for the experimental part: as §2, §6

B1: mouse TNF (mTNF), soluble protein expressed from pANT65 (ligand, UniProt P06804 80-235, looked up)
chain: LRSSSQNSSDKPVAHVVANHQVEEQLEWLSQRANALLANGMDLKDNQLVVPADGLYLVYSQVLFKGQGCPDYVLLTHTVSRFAISYQEKVNLLSAVKSPCPKDTPEGAELKPWYEPIYLGGVFQLEKGDQLSAEVNLPKYLDFAESGQVYFGVIAL
notes: not shown: C-terminal FLAG tag and His6 tag from vector pANT65
Take B1: the binding result in assay [1] and in assay [2] was “binds” in each case.

B2: TNF mutein B4 (ligand)
chain: VRSSSHTPSDKPVAHVVANPQAEGQLQWLNRRANALLANGVELRDNQLVVPSEGLYLIYSQVLFKGQGCPSTHVLLTHTISRISESHDGKVNLLSAIKSPCQRETPEGAEAKPWYEPIYLGGVFQLEKGDRLSAEINRPDYLDFAESGQVYFGIIAL
notes: Human TNF mutein, SESHDG at positions 84-89; not shown: C-terminal FLAG tag and His6 tag from vector pANT65
In the case of B2, the binding result in assay [2] was “no binding (tested: 15 nM)”. In addition, the Kd turned out to be 0.11 nM in [3], 0.153 nM in [4], 0.0195 nM in assay [5] and 0.132 nM in [6].

B3: TNF mutein F3 (ligand)
chain: VRSSSRTPSDKPVAHVVANPQAEGQLQWLNRRANALLANGVELRDNQLVVPSEGLYLIYSQVLFKGQGCPSTHVLLTHTISRITTTYRLKVNLLSAIKSPCQRETPEGAEAKPWYEPIYLGGVFQLEKGDRLSAEINRPDYLDFAESGQVYFGIVAL
notes: Human TNF mutein, TTTYRL at positions 84-89; not shown: C-terminal FLAG tag and His6 tag from vector pANT65
For the molecule B3, the binding result in assay [1] is “no binding (tested: 15 nM)”. Further, the Kd turned out to be 0.462 nM in [3]; 5.08 nM in [4]; 0.012 nM in [7]; 0.11 nM in [8]; 0.0271 nM in assay [9]; 0.527 nM in [10]. In addition, the dissociation constant (Kd) in assay [11] came to 0.023 nM; in assay [12] it was 0.398 nM; in [5], 0.635 nM; in assay [6], 7.35 nM.

B4: TNF mutein B5 (ligand)
chain: VHSSSRTPSDKPVAHVVANPQAEGQLQWLNRRANALLANGVELRDNQLVVPSEGLYLIYSQVLFKGQGCPSTHVLLTHTISRITGTYVDKVNLLSAIKSPCQRETPEGAEAKPWYEPIYLGGVFQLEKGDRLSAEINRPDYLDFAESGQVYFGIIAL
notes: Human TNF mutein, TGTYVD at positions 84-89; not shown: C-terminal FLAG tag and His6 tag from vector pANT65
As for B4, the binding result in assay [1] and in assay [2] was “no binding (tested: 15 nM)” throughout. The equilibrium dissociation constant (Kd) in assay [3] was found to be 0.0591 nM; in [4] it was 0.289 nM; in assay [7] it was 0.0355 nM; in assay [8] it was 0.0771 nM; in assay [9], 0.0493 nM; in assay [10] it was 0.115 nM. Moreover, the Kd in assay [11] came out at 0.0446 nM; in [12] it was 0.0977 nM; in [5], 0.0199 nM; in assay [6], 0.128 nM.

B5: TNF mutein B6 (ligand)
chain: VRSSSRTPSDKPVAHVVANPQAEGQLQWLNRRANALLANGVELRDNQLVVPSEGLYLIYSQVLFKGQGCPSTHVLLTHTISRITGTYSYKVNLLSAIKSPCQRETPEGAEAKPWYEPIYLGGVFQLEKGDRLSAEINRPDYLDFAESGQVYFGIIAL
notes: Human TNF mutein, TGTYSY at positions 84-89; not shown: C-terminal FLAG tag and His6 tag from vector pANT65
Turning to B5, the binding result in assay [1] and in [2] was “no binding (tested: 15 nM)” each time. Besides, the Kd amounted to 0.339 nM in assay [3]; 0.59 nM in [4]; 0.0969 nM in assay [7]; 0.067 nM in assay [8]; 0.0526 nM in assay [9]; 0.711 nM in assay [10]. The dissociation constant Kd in [11] is 0.0667 nM; in assay [12] it was 0.0474 nM; in assay [5], 0.0169 nM; in assay [6] it was 0.304 nM.

B6: TNF mutein C4 (ligand)
chain: VRSSSRTPSDKPVAHVVANPQAEGQLQWLNRRANALLANGVELRDNQLVVPSEGLYLIYSQVLFKGQGCPSTHVLLTHTISRISHSVEGKVNLLSAIKSPCQRETPEGAEAKPWYEPIYLGGVFQLEKGDRLSAEINRPDYLDFAESGQVYFGIIAL
notes: Human TNF mutein, SHSVEG at positions 84-89; not shown: C-terminal FLAG tag and His6 tag from vector pANT65
As for B6, the binding result in assay [1] and in assay [2] was “no binding (tested: 15 nM)” throughout. In addition, the Kd worked out at 0.0306 nM in assay [3], 0.208 nM in assay [4], 0.0129 nM in assay [5] and 0.0323 nM in [6].
